Results as given in patent publication US20150232576A1.

Assays:
[1] = target: Phosphorylated His-p38 (p38 MAP kinase) (UniProt Q16539); experiment: BLI, immobilised p38, k2/k1
[2] = target: Phosphorylated His-p38 (p38 MAP kinase) (UniProt Q16539); experiment: optical biosensing (BLI), summary statement
[3] = target: Phosphorylated His-p38 (p38 MAP kinase) (UniProt Q16539); experiment: refers to the biosensor experiments described above
[4] = target: Phosphorylated His-p38 (p38 MAP kinase) (UniProt Q16539); experiment: BLI, biotinylated p38 on streptavidin sensors, 696 nM eNOS analyte
[5] = target: Phosphorylated His-p38 (p38 MAP kinase) (UniProt Q16539); experiment: BLI, immobilised p38, eNOS analyte, two-component sequential model
[6] = target: Phosphorylated His-p38 (p38 MAP kinase) (UniProt Q16539); experiment: BLI, immobilised p38, from the pseudo first order rate at 232 nM eNOS
[7] = target: Phosphorylated His-p38 (p38 MAP kinase) (UniProt Q16539); experiment: BLI, biotinylated p38 on streptavidin sensors, 696 nM eNOS, 300 s dissociation in buffer
[8] = target: Phosphorylated His-p38 (p38 MAP kinase) (UniProt Q16539); experiment: BLI, immobilised p38, 696 nM nNOS analyte, compared with eNOS

endothelial nitric oxide synthase (eNOS), purified, unphosphorylated, sequence (P29473 whole entry): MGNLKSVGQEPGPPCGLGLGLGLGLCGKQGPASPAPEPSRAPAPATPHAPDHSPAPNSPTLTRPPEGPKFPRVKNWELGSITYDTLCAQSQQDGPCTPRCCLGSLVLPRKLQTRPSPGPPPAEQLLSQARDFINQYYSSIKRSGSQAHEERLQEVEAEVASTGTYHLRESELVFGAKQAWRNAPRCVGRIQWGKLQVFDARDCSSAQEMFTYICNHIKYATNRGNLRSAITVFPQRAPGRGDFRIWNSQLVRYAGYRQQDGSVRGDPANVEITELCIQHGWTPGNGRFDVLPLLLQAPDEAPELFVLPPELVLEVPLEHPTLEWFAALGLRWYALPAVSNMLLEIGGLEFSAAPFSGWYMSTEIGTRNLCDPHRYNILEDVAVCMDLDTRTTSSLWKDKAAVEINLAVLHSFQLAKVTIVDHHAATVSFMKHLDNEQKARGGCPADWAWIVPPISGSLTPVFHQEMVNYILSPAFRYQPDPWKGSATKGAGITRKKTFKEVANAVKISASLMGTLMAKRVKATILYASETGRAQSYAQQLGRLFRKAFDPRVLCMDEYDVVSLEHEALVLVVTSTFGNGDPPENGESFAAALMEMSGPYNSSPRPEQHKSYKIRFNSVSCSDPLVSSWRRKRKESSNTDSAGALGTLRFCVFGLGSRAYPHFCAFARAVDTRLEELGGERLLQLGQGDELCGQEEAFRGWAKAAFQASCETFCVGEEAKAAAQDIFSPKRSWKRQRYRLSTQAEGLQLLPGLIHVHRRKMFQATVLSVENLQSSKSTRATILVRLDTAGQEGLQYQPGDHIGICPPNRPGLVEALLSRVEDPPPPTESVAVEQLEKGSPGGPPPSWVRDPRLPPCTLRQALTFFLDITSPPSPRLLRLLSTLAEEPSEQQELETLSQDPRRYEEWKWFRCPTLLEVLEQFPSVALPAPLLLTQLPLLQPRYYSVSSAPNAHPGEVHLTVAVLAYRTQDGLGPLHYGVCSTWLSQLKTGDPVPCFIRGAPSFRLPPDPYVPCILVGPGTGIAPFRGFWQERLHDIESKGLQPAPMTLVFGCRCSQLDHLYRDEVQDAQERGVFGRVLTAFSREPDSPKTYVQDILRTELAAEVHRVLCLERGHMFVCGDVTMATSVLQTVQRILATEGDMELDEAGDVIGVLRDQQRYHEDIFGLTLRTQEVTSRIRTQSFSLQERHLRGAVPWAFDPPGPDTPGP

“endothelial nitric oxide synthase (eNOS), purified, unphosphorylated (from UniProt P29473 1-1205) (enzyme)” gave a Kd [1] of 80 nM, a Kd [2] of 100 nM and a kon [2] of 150000 M⁻¹ s⁻¹. For the same substance, the Kd [3] was 0.05 to 0.1 nM, the half time of the initial association component [4] was 10 s and the k1 (pseudo first order forward rate, first step) at 26 nM eNOS [5] was 0.0025 s⁻¹. It also gave a k1 (pseudo first order forward rate, first step) at 77 nM eNOS [5] of 0.0008 s⁻¹, a k1 (pseudo first order forward rate, first step) at 232 nM eNOS [5] of 0.03 s⁻¹ and a k1 (pseudo first order forward rate, first step) at 696 nM eNOS [5] of 0.1 s⁻¹. The k2 (reverse rate, first step) at 26 nM eNOS [5] was 0.01 s⁻¹, the k2 (reverse rate, first step) at 77 nM eNOS [5] was 0.01 s⁻¹ and the k2 (reverse rate, first step) at 232 nM eNOS [5] was 0.01 s⁻¹. It also gave a k2 (reverse rate, first step) at 696 nM eNOS [5] of 0.01 s⁻¹, a k3 (forward rate, second step) at 26 nM eNOS [5] of 0.0002 s⁻¹ and a k3 (forward rate, second step) at 77 nM eNOS [5] of 0.006 s⁻¹. The k3 (forward rate, second step) at 232 nM eNOS [5] was 0.0002 s⁻¹, the k3 (forward rate, second step) at 696 nM eNOS [5] was 0.006 s⁻¹ and the k4 (reverse rate, second step) at 26 nM eNOS [5] was 0.001 s⁻¹. The k4 (reverse rate, second step) at 77 nM eNOS [5] was 0.001 s⁻¹, the k4 (reverse rate, second step) at 232 nM eNOS [5] was 0.001 s⁻¹ and the k4 (reverse rate, second step) at 696 nM eNOS [5] was 0.001 s⁻¹. For the same substance, the kon [6] was 130000 M⁻¹ s⁻¹ and the percent of the rapid phase binding dissociated in buffer [7] was 25%.

In the case of “neuronal nitric oxide synthase (nNOS) (from UniProt P29476 1-1429) (enzyme)”, the fold slower binding than eNOS [8] is reported as 30 fold.
